# B1: Lysozyme C, P61626 (parent)
# chain: MKALIVLGLVLLSVTVQGKVFERCELARTLKRLGMDGYRGISLANWMCLAKWESGYNTRATNYNAGDRSTDYGIFQINSRYWCNDGKTPGAVNACHLSCSALLQDNIADAVACAKRVVRDPQGIRAWVAWRNRCQNRDVRQYVQGCGV
# Variants of: B1
# Conditions: Homo sapiens; pH 2.51; Thermal; DSC; glycine 0.05 M; reversible: yes; structure 1LZ1; whole UniProt chain shown
Variant,Tm [°C],heat capacity change of unfolding [kcal/mol/K],unfolding enthalpy (calorimetric) [kcal/mol],unfolding enthalpy (van 't Hoff) [kcal/mol]
S79A,57,1.1,99,103
S100A,62.5,1.41,111,117
S69A,61,1.48,106,113

# Same assay, conditions: Homo sapiens; pH 2.7; Thermal; DSC; glycine 0.05 M; reversible: yes; structure 1LZ1; whole UniProt chain shown
Variant,Tm [°C],"change of melting temperature, mutant - wild type (higher = more stable) [°C]",heat capacity change of unfolding [kcal/mol/K],unfolding enthalpy (calorimetric) [kcal/mol]
S79A,60.6,-4.3,1.27,109
S98A,66.3,1.4,1.43,116
S42A,63.3,-1.6,1.51,110
S54A,61.4,-3.5,1.31,109
S100A,66,1.1,1.27,114
S69A,64.2,-0.7,1.43,112

# Same assay, conditions: Homo sapiens; pH 2.84; Thermal; DSC; glycine 0.05 M; reversible: yes; structure 1LZ1; whole UniProt chain shown
Variant,Tm [°C],heat capacity change of unfolding [kcal/mol/K],unfolding enthalpy (calorimetric) [kcal/mol],unfolding enthalpy (van 't Hoff) [kcal/mol]
S79A,63.6,1.15,107,111
S54A,64,1.24,107,113

# Same assay, conditions: Homo sapiens; pH 3.1; Thermal; DSC; glycine 0.05 M; reversible: yes; structure 1LZ1; whole UniProt chain shown
Variant,Tm [°C],heat capacity change of unfolding [kcal/mol/K],unfolding enthalpy (calorimetric) [kcal/mol],unfolding enthalpy (van 't Hoff) [kcal/mol]
S79A,68.3,1.31,113,118

# Same assay, conditions: Homo sapiens; pH 2.5; Thermal; DSC; glycine 0.05 M; reversible: yes; structure 1LZ1; whole UniProt chain shown
Variant,Tm [°C],heat capacity change of unfolding [kcal/mol/K],unfolding enthalpy (calorimetric) [kcal/mol],unfolding enthalpy (van 't Hoff) [kcal/mol]
S98A,62.7,1.41,113,120

# Same assay, conditions: Homo sapiens; pH 2.69; Thermal; DSC; glycine 0.05 M; reversible: yes; structure 1LZ1; whole UniProt chain shown
Variant,Tm [°C],heat capacity change of unfolding [kcal/mol/K],unfolding enthalpy (calorimetric) [kcal/mol],unfolding enthalpy (van 't Hoff) [kcal/mol]
S98A,66.2,1.34,119,126
S69A,64.2,1.43,111,118

# Same assay, conditions: Homo sapiens; pH 2.85; Thermal; DSC; glycine 0.05 M; reversible: yes; structure 1LZ1; whole UniProt chain shown
Variant,Tm [°C],heat capacity change of unfolding [kcal/mol/K],unfolding enthalpy (calorimetric) [kcal/mol],unfolding enthalpy (van 't Hoff) [kcal/mol]
S98A,69.1,1.34,122,129
S100A,68.9,1.2,120,128

# Same assay, conditions: Homo sapiens; pH 3.11; Thermal; DSC; glycine 0.05 M; reversible: yes; structure 1LZ1; whole UniProt chain shown
Variant,Tm [°C],heat capacity change of unfolding [kcal/mol/K],unfolding enthalpy (calorimetric) [kcal/mol],unfolding enthalpy (van 't Hoff) [kcal/mol]
S98A,73.6,1.39,129,135
S69A,70.8,1.36,120,126

# Same assay, conditions: Homo sapiens; pH 2.46; Thermal; DSC; glycine 0.05 M; reversible: yes; structure 1LZ1; whole UniProt chain shown
Variant,Tm [°C],heat capacity change of unfolding [kcal/mol/K],unfolding enthalpy (calorimetric) [kcal/mol],unfolding enthalpy (van 't Hoff) [kcal/mol]
S42A,58.8,1.46,101,105

# Same assay, conditions: Homo sapiens; pH 2.66; Thermal; DSC; glycine 0.05 M; reversible: yes; structure 1LZ1; whole UniProt chain shown
Variant,Tm [°C],heat capacity change of unfolding [kcal/mol/K],unfolding enthalpy (calorimetric) [kcal/mol],unfolding enthalpy (van 't Hoff) [kcal/mol]
S42A,62.5,1.67,106,111

# Same assay, conditions: Homo sapiens; pH 2.82; Thermal; DSC; glycine 0.05 M; reversible: yes; structure 1LZ1; whole UniProt chain shown
Variant,Tm [°C],heat capacity change of unfolding [kcal/mol/K],unfolding enthalpy (calorimetric) [kcal/mol],unfolding enthalpy (van 't Hoff) [kcal/mol]
S42A,65.7,1.55,112,117

# Same assay, conditions: Homo sapiens; pH 3.09; Thermal; DSC; glycine 0.05 M; reversible: yes; structure 1LZ1; whole UniProt chain shown
Variant,Tm [°C],heat capacity change of unfolding [kcal/mol/K],unfolding enthalpy (calorimetric) [kcal/mol],unfolding enthalpy (van 't Hoff) [kcal/mol]
S42A,70.3,1.41,118,123
S54A,68.7,1.22,114,119

# Same assay, conditions: Homo sapiens; pH 2.47; Thermal; DSC; glycine 0.05 M; reversible: yes; structure 1LZ1; whole UniProt chain shown
Variant,Tm [°C],heat capacity change of unfolding [kcal/mol/K],unfolding enthalpy (calorimetric) [kcal/mol],unfolding enthalpy (van 't Hoff) [kcal/mol]
S54A,57.1,1.31,98.5,103

# Same assay, conditions: Homo sapiens; pH 2.67; Thermal; DSC; glycine 0.05 M; reversible: yes; structure 1LZ1; whole UniProt chain shown
Variant,Tm [°C],heat capacity change of unfolding [kcal/mol/K],unfolding enthalpy (calorimetric) [kcal/mol],unfolding enthalpy (van 't Hoff) [kcal/mol]
S54A,60.8,1.31,104,109

# Same assay, conditions: Homo sapiens; pH 3.12; Thermal; DSC; glycine 0.05 M; reversible: yes; structure 1LZ1; whole UniProt chain shown
Variant,Tm [°C],heat capacity change of unfolding [kcal/mol/K],unfolding enthalpy (calorimetric) [kcal/mol],unfolding enthalpy (van 't Hoff) [kcal/mol]
S100A,73.5,1.41,125,133

# Same assay, conditions: Homo sapiens; pH 2.86; Thermal; DSC; glycine 0.05 M; reversible: yes; structure 1LZ1; whole UniProt chain shown
Variant,Tm [°C],heat capacity change of unfolding [kcal/mol/K],unfolding enthalpy (calorimetric) [kcal/mol],unfolding enthalpy (van 't Hoff) [kcal/mol]
S69A,66.7,1.55,115,121
